Experimental data: the nanobody polyreactivity screen of Harvey et al. (2022)

Assay: yeast display, Sf9 membrane polyspecificity reagent, FACS + sequencing; frameworks hold sequencing errors
Method in brief: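 Nanobodies from a synthetic yeast display library (Saccharomyces cerevisiae BJ5465), induced 36–48 hours with galactose, were stained 1 hour at 4 °C with 10% biotinylated, detergent-solubilized Sf9 membrane reagent, enriched on streptavidin microbeads, then FACS-sorted. Anti-HA (expression) and streptavidin (reagent binding) fluorescence set low and high (top ~1%) gates. Polyreactivity labels come from the gate of origin. Genes were colony-PCR amplified, MiSeq 2 × 250 sequenced and filtered by CDR length.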

Row | Sequence | polyreactivity (PSR sort gate)
1 | QVQLVESGGGLVQAGGSLRLSCAASGRIFPRYAMGWYRQATGKERELVATISSGGSTYYADSVKGRFTISRDNAKNTVYLQMNSLKPEDTAVYYCAARKRPYTVINGMDYWGQGTQVTVSS | low polyreactivity
2 | QVQLVESGGGLVQAGGSLRLSCAASGSTFVYYAMGWYRQAPGKEREFVAAISISTGSTYYADSVKGRFTISRDNAKNTVYLQMNSLKPEDTAVYYCAVDWFLGGYDDLDYWGQGTQVTVSS | low polyreactivity
3 | QVQLVESGGGLVQAGGSLRLSCAASGSTFVGYAMGWYRQAPGKERELVADIDSIGGSTYYADSVKGRFTISRDNAKNTVYLQMNSLKPEDTAVYYCAARRFDTALVLYDYCGQGTQVTVSS | low polyreactivity
4 | QVQLVESGGGLVQAGGSLRLSCAASGYTYPYYTMGWYRQAPGKERELVAAISSGGRTKYADSVKGRFTISRDNAKNTVYLQMNSLKPEDTAVYYCAKSGNYRTGRFDYWGQGTQVTVSS | high polyreactivity
5 | QVQLVESCGGLVQAGGSLRLSCAASGFIFLPYVMGWYRQAPGKERELVAAISGGGGITYYADSVKGRFTISRDNAKNTVYLQMNSLKPEDTAVYYCAAERPVAPYDYWGQGTQVTVSS | low polyreactivity
6 | QVQLVESGGGLVQAGGSLRLSCAASGRIFPYYAMGWSRQAPGKVRELVAAISVSDVRTYYPDSVKGRFTISRDNAKNTVYLQMNSLKPEDTAVYYCAAYWYRSPQSGLDYWGQGTQVTVSS | low polyreactivity
7 | QVQLVESGGGLVQAGGSLRLSCPSSGIIFYYYAMGWYRQAPGKERELVAAINFSVGGTYYADSVKGRFTISRDNAKNTVYLQMNSEKPEDTEVYYCAKDIVIPATYVEYDYWGQGTQVTVSS | low polyreactivity
8 | QVQLVESGGGLVQAGGSLRLSCAASGRTFDHNTMGWYRQAPGTERELVAAISWSGGTTYYADSVKGRFTISRDNAKNTGYLQMNSLKPEDTAVYDCAADRSPGSYGYQYDYWGQGTQVTVSS | low polyreactivity
9 | QVQLVESGRGLVQAGGSLRLSCAASGRIFYRYVMGWYRQAPGKERELVAAITSSGGSTYYADSVKGRFTISRDNAKNTVYFQMNSLKPEDTAVYYCSADRYTRYRYNYWGQGTQVTVSS | high polyreactivity
10 | QVQLQESGGGLVQAGGSQRLSCAASGYIFYFQYMGWYRQATGKEREFVAAISDGANTNYADSVKGRFTISRDNAKNTEYLQMNSLKPEDTAVYYCAVYADENYYFIYWGQGTQVTVSS | low polyreactivity
11 | QVQLVESGGGLVQAGGSLRLSCAASGSIFATYAMGWYRQAPGKERELVAAITSSDGSTNYADSVKGRFTISRDNAKNTVDLQMNRLKPEDTAVYYCATDAPDRTDSDSGFDAGYDYWGQGTQVTLSS | low polyreactivity
12 | QVQLVESGGGLVQAGGSLRLSCAASGSIFNSYAMGWYRQAPGKERELVAAISGSGTRTYYADSVKGRFTISRDNAKNTVYLQMNSLKPEDTAVYYCAGYGYWGQGTQVNVSS | high polyreactivity
13 | QVQLVESGGGLVQAGGSLRLSCAASGIIFVENPMGWYRQAPGKERELVATITSGDTTNYADSVKGRFTISRDNAKNTVYLHMNSLKAEDTAVYYCAAERYEDFTEYDYWGQGTQVTVSS | low polyreactivity
14 | QVQLVESGGGLVQAGGSLRLSCAASGRIFPRNTMGWYRQAPGKEREMVAAISTRGGSTYYADSVKGRFTISRDNAQNTVYLEMNSLKPEDTAVDYSAAGRRFPAIYSTGNYWGQGTQVTVSS | high polyreactivity
15 | QVQLEESGGGLVQAGGSLRISCAASGLIFRTNAIGWYRQAPGKERELVAAISWSTGSTYYADSVKGRFTISRDNAKNTVYLQMNSLKPEDTAVYYCARTLRWTYRYGYWGQGTQVTVSS | high polyreactivity
16 | QVQLVESGGGLVQAGGSLRLSCAASGSTFDYYAMGWYRQAPGKERELVAAISWSGGSTYYADSVKGRFTISRDNEKNTVYLQMNSLKPEDTAVYYCAALYSYISGGYIYDYWGQGTQVTVSS | low polyreactivity
17 | QVQLVESGGGLVQAGGILRLSCAASGFTFSDNAMGWYIQAPGKERELVAAISRSGGRTYYADSVKGRFTISRDNAKNTVYLQMNSLKPEDTAVYYCAAYQYGMDYWGQGSQVTVSS | high polyreactivity
18 | QVQIVESGGGLVQAGGSLRLSCAASGYTFVENAMGWYRQAPGKERELVAAISNGTITYYADSVKGRFTISRDNAKNTVYLQMNSLKPEDTAVYYCADYEYWGQGTQVTVSS | low polyreactivity
19 | QVQLVESGRGLVQAGGSLRLSCAASGIIFSSYAMGWYRQAPGKERELVAAISYSGGSTYYADSVKGLFSISRDNAKNTVYLEMNCLIPEDTAVYYCAAQGYSPGGYDYWGQGTQVTVSW | low polyreactivity
20 | QVQLVESGGGLVQAGGSLRLSCAASGRTFYYYAMGWYRQAPGKERELVAAISSSTGRTYYADSVKGRFTISRDNAKNTVYLQMNSLKPEDTAVYYCAKYRVFGYQFDYWGQGTQVTVSS | high polyreactivity
21 | QVQLVESAGGLVQAGGSRRLSCAASGRNFPFYAMGWYRQAPGKERELVATISSGDRTNYAVSVKGRFTISRDNAKNTVYLQMNSLKPEDTAVYYCAADFAVKYRKRVRRYSWGHGTQVTVSS | low polyreactivity

Row | Sequence | polyreactivity (PSR sort gate)
22 | QVQLVESGGGLVQAGGSLRLSCAASRGIFGYNAMGWYRQAPGKERELVARISSSGGSTYYADSVKGRFTISRDNAKNTVYLQMNSLKPEDTAVYYCNTASNRYPGWRAEFDYWGQGTQVTVSS | low polyreactivity
23 | QVQLVESGGGLVQAGGSLRLSCAASGRIFTSNAMGWYRQAPGKERELVAAISSSSGSTYYADSVKGRFTISRDNAKNTVSLQMNSLKPEDTAVYYCAARTWRVSGTYKYDYWGQGTQVTVSS | low polyreactivity
24 | QVQLVESGGGLVQAGGSLRLSCAASGRTFFRYAMGWYRQAPGKERELVAAITRGGSTNYADSVKGRFTISRDNAKNTVYLQMNSLKPEDTAVYYCAKTTFSYRGHYYWGQGTQVTVSS | high polyreactivity
25 | QVQLVESGGGLVQAGGSLRLSCAASGRTFWYYAMGWYRQSPGKERELVAVITSGSSTYYADSVKGRFTISRDNAKNTDYLQMTSLKPEDTAVYYCAVGRTYRRYSAASYNYWGQGTQVTVSS | high polyreactivity
26 | QVQLVESGGGLVQAGGSLRLSCAASGSTFYAYAMGWYRQAPGKERELVAAIDSGGSTYYADSVKGRFTISRDNAKNTFYLEMNSLKPEDTAVYYCAVRHRYTRAYWGRDYWGQGTQVTVSS | low polyreactivity
27 | QVQLVESGGGLVQAGGSVRLSCAASGFIISYYAMGWYRQAPGKERELFAAISWSGGSTYYADSVKGSFTISRDNAKNTVYLQMNSLKPEDTAVYYCAADFLYGAEGNDYWGQGTQVTVSS | high polyreactivity
28 | QVQLVESGGGLVQAGGSLRLSCAASGRIFYIYAMGWFRQAPGKERELVAAITNGGSTNYADSVKGRFTISRDNAKNTVYLQMNSLKPEDTAVYYCAASVGTYAYARTVYRYDYWGQGTQVTVSS | low polyreactivity
29 | QVQLVESGGGLVQAGGSLRLSCAASGSTFYKYAMGWYRQAPGKERELVASISRSGGSTSYADSVKGRFTISRDNAKNTVYLQMNSLKPEDTAVYYCAATWRQHPGSMGYWGQGTQVTVSS | high polyreactivity
30 | QIQLVESGGGIVQAGGSLRLSCAASGFIFNTYDMGWYRQAPGKEMELVAVITSGGTTNYADSVKGRFTISRDNAKNTVYLQINCLKPEDTAVYSCNRDSVLDPGNPKPYVFDYWGQGTQVTVSS | low polyreactivity
31 | QVQLQESGGGLVHAGGSLRLSCAASGTISFINMMGWYRQAPGRERELVASINFGANTNYADSVKGRFTISRDNAKNTVYLQMNSLKPEDTAVYYCAVYDFDAYTLYYWGQGTLVTVSS | high polyreactivity
32 | QVQHVESGGGLVQAGGSLRLSCAASGSIFGDNAMGWYRQAPGKERELVAAISSGGPTYADSVKGRFTISRDNAKNTVYLQMNSLKPEDTAVYYCNATDGITPYDLTDIEFDYWGQGTQVTVSS | low polyreactivity
33 | QVQLVESGGGLVQAGGRLRLSCAASGSIFAGYAMGWYRQAPGKERELVAASSTDYADSVKGRFTISRDNAKNTVYLHMNSLKPEDTAVYYCAKVGFGIPGGFYYWGQGTQVTVSS | low polyreactivity
34 | QVQLVESGGGLVQAGGSLRLSCAASGFTFYAYAMGWYRQAPGKERELVAAISGRGTSTYYADSVKGRFTISRDNAKNTVYLQMNSLKPEDTAFYYCIKYPLRLYGYDYWGQGTQVTVSS | high polyreactivity
35 | QVQLVESGGGLVQAGGSLRLSCAASGRIFYPYAMGWYRQPPGKERELVAAIDKGGGSTYYADSVKGRFTISRDNAKNTVYLQMNSLKPEDTAVYYCAAGWEYPYDYWGQGTQVTVSS | low polyreactivity
36 | QVQLVESGGGLVQAGGSLRLSCAASGLIIDGYAMGWSRQAPGKERELVATITVSGTSTYYADSVKGRFTISRDNAKNTVYLQMNSLKPEDTAVYYFATDRNYGYYFVEYDHDYWGQGTQVTVSS | low polyreactivity
37 | QVQLVESGGGLVQAGGSLRLSWAASGRIFGRYTMGWYTQAPGKERELVAAISSAGSTNYADSVKGRFTISRDNAKNTVYLQMNSLKPEDTAVYYCNRAKYVRYSLHYLGYARDYWGQGTQVTVSS | high polyreactivity
38 | QVQLVESGGGLVQAGGSLRLSCAASGITFVSNVMGWYRQAPGKEREFVAAINVSGDSTTYADSVKGRFTISRDNAKNTVYLQRNSLKPEDTAVYYCAAEYNFPEFPWGGEYDYWGQGTQVTVSS | low polyreactivity
39 | QVQLVESGGGLVQAGGSLRLSCAASGRIFSTYAMGWYRQAPGKERELVAAINSIGGRTYYADSVKGRFTISRDNAKNTVYLQMNSMKPEDTAVYYCAASRFRTGQEDDYWGQGTQVTVSS | high polyreactivity
40 | QVQLVESGGGLVQAGGSLRLSCAASGSTFRRNAMGWYRQAPGKERELVAAISSGGGSTYYADSVKGRFTISRDNAKNTVYLQMNSLKPEVTAVYYCAAGYFGHYVEYYYWGQGTQVTVSS | high polyreactivity
41 | QVQLVESGGGLVQAGGSLRVSCAASGTIFRRYAMGWYRQAPGKERELVATISSCTTTNYADSVKGRFTISRDNAKNTVYLQMNSLKPEDTAVYYCAADDYYEFYWGQGTQVTVSS | high polyreactivity
